Measured values: US20080064629A1, “Amphiregulin as a Protective Agent in Acute Hepatic Injury” (priority 2004, published 2008)

Assays:
cultured rat hepatocytes = assay: EGF-R and proliferation signaling pathways (Western blot of phosphorylation) in cultured rat hepatocytes; type: cell-based
Procedure: (§1) Hepatocytes were isolated from male Wistar rats (150 g) and C57/BL6 mice (20 g) by perfusion with collagenase (Gibco-BRL, Paisley, UK) as described elsewhere [(18), (20)]. Cells (5×10^5 cells per well) were plated onto 6-well plates coated with collagen (type I collagen, Collaborative Biomedical, Bedford, Mass., USA). Cultures were maintained in MEM medium supplemented with 10% fetal calf serum (FCS), non-essential amino acids, glutamine 2 mM and antibiotics (all supplied by Gibco-BRL). After 2 h of incubation, the medium was removed and cells were again cultured in the same medium with 5% FCS. Where applicable, hepatocytes were treated with IL-1β or TNFα from Roche (Mannheim, Germany), HGF or forskolin from Calbiochem (San Diego, Calif., USA), IL6 from RD Systems (Wiesbaden-Nordenstadt, Germany), or PGE2 from Alexis QBiogene (Carlsbad, Calif., USA).
(§2) Homogenates from liver samples and isolated hepatocytes were subjected to Western blot analysis as described elsewhere [(19, (20)]. Antibodies used were: affinity purified and biotinylated polyclonal antibody specifically targeted to murine AR (BAF989)(RD Systems); specific antibodies for the p17 subunit of active caspase-3 (9664S), phosphorylated Akt (Ser473) (9271S) and phosphorylated STAT3 (Tyr^705) (9131S) (Cell Signaling, Beverly, Mass., USA); ERK1/2 (06-182), phosphorylated EGF-R (Tyr^1173)(05-483) and STAT3 (06-596)(Upstate Biotechnology, Charlottesville, Va., USA). All other antibodies were from Santa Cruz Biotechnology (Santa Cruz, Calif., USA): BclxL (sc8392), Bcl2 (sc7382), EGF-R (sc-03), phosphorylated ERK1/2 (Tyr^204) (sc7383), Akt (sc5298), JNK (sc571), and phosphorylated JNK (Thr^183/Tyr^185) (sc6254).

male C57/BL6 mice [1] = assay: Acute liver damage induced by CCl4 in mice, treatment with AR; type: in vivo; conditions: AR 9.5 μg/mouse i.p. 0.5 h before and 12 h after CCl4
Procedure: The experiments were carried out in compliance with the guidelines of the University of Navarra relating to the use of laboratory animals. Cirrhosis was induced with CCl4 in male Wistar rats as described elsewhere [(16) Castilla-Cortazar, I., Garcia, M., Muguerza, B., Quiroga, J., Perez, R., Santidrian, S., Prieto, J. 1997. Hepatoprotective effects of insulin-like growth factor I in rats with carbon tetrachloride-induced cirrhosis. Gastroenterology 113:1682-1691). Two-thirds PH or sham operations were performed on male Wistar rats (150 g) and male C57/BL6 mice (20 g) according to the method of Higgins and Andersen [(17) Higgins, G. M., Andersen, R. M. 1931. Experimental pathology of liver: restoration of liver of the white rat following partial surgical removal. Arch. Pathol. 12:186-202. (18) Latasa, M. U., Boukaba, A., García-Trevijano, E. R., Torres, L., Rodríguez, J. L., Caballería, J., Lu, S. C., López-Rodas, G., Franco, L., Mato, J. M., et al. 2001. Hepatocyte growth factor induces MAT2A expression and histone acetylation in rat hepatocytes. Role in liver regeneration. FASEB J. 10.1096/fj.00-0556fje. (19) Chen, L., Zeng, Y., Yang, H., Lee, T. D., French, S. W., Corrales, F. J., García-Trevijano, E. R., Avila, M. A., Mato, J. M., and Lu, S. C. 2004. Impaired liver regeneration in mice lacking methionine adenosyltransferase 1A. FASEB J. 18: 914-916]. Following sedation, in the sham operated animals the liver was exposed and then returned to the abdominal cavity. […] At the indicated timepoints, mice were subjected to blood sampling and the sera were analysed for alanine and aspartate aminotransferase (ALT and AST) as described elsewhere [(16) and (21) Lasarte, J. J., Sarobe, P., Boya, P., Casares, N., Arribillaga, L., López-Díaz of Cerio, A., Gorraiz, M., Borrás-Cuesta, F., Prieto, J. 2003. […]

male C57/BL6 mice [2] = assay: Acute liver damage induced by Jo2 antibody (Fas activation) in mice, treatment with AR; type: in vivo, mouse
Procedure: The experiments were carried out in compliance with the guidelines of the University of Navarra relating to the use of laboratory animals. Cirrhosis was induced with CCl4 in male Wistar rats as described elsewhere [(16) Castilla-Cortazar, I., Garcia, M., Muguerza, B., Quiroga, J., Perez, R., Santidrian, S., Prieto, J. 1997. Hepatoprotective effects of insulin-like growth factor I in rats with carbon tetrachloride-induced cirrhosis. Gastroenterology 113:1682-1691). Two-thirds PH or sham operations were performed on male Wistar rats (150 g) and male C57/BL6 mice (20 g) according to the method of Higgins and Andersen [(17) Higgins, G. M., Andersen, R. M. 1931. Experimental pathology of liver: restoration of liver of the white rat following partial surgical removal. Arch. Pathol. 12:186-202. (18) Latasa, M. U., Boukaba, A., García-Trevijano, E. R., Torres, L., Rodríguez, J. L., Caballería, J., Lu, S. C., López-Rodas, G., Franco, L., Mato, J. M., et al. 2001. Hepatocyte growth factor induces MAT2A expression and histone acetylation in rat hepatocytes. Role in liver regeneration. FASEB J. 10.1096/fj.00-0556fje. (19) Chen, L., Zeng, Y., Yang, H., Lee, T. D., French, S. W., Corrales, F. J., García-Trevijano, E. R., Avila, M. A., Mato, J. M., and Lu, S. C. 2004. Impaired liver regeneration in mice lacking methionine adenosyltransferase 1A. FASEB J. 18: 914-916]. Following sedation, in the sham operated animals the liver was exposed and then returned to the abdominal cavity. Acute liver damage was induced in male C57/BL6 mice (20 g) (n=3-5 per condition and time point) by means of a single intraperitoneal injection of CCl4 (1 μl/g body weight in olive oil) (Sigma, St. Louis, Mo., USA) or Jo2 monoclonal antibody (4 μg/mouse in saline solution) (BD PharMingen, San Diego, Calif., USA) [(5),(20) Martínez-Chantar, M. L., Corrales, F. J., Martínez-Cruz, A., García-Trevijano, E. R., Huang, Z. Z., Chen, L. X., Kanel, G., Avila, M. A., Mato, J. M., Lu, S. C. 2002. Spontaneous oxidative stress and liver tumors in mice lacking methionine adenosyltransferase 1A. FASEB J. 10.1096/fj.02-0078fje]. The controls received an equivalent volume of olive oil or saline solution. In the cases indicated, the mice received an intraperitoneal injection of human recombinant AR (9.5 μg/mouse) (Sigma) 6 and 0.5 h before and 3 h after Jo2 antibody, or 0.5 h before and 12 h after CCl4. At the indicated timepoints, mice were subjected to blood sampling and the sera were analysed for alanine and aspartate aminotransferase (ALT and AST) as described elsewhere [(16) and (21) Lasarte, J. J., Sarobe, P., Boya, P., Casares, N., Arribillaga, L., López-Díaz of Cerio, A., Gorraiz, M., Borrás-Cuesta, F., Prieto, J. 2003. A recombinant adenovirus encoding hepatitis C virus core and E1 proteins protects mice against cytokine-induced liver damage. Hepatology 37: 461-470]. Mice were sacrificed by cervical dislocation, and the livers were quickly frozen in liquid nitrogen, or fixed in formalin and embedded in paraffin for staining with hematoxylin and eosin (H&E).
Caspase-3 activity in mouse hepatocytes and liver tissue lysates was assessed using the Caspase-3/CPP32 colorimetric assay kit (BioVision, Palo Alto, Calif., USA). Cells in culture (5×10^5 per condition) were lysed directly in the lysis buffer supplied with the kit after the corresponding treatments. Liver tissue was homogenized using a Dounce homogenizer in lysis buffer, followed by centrifugation at 15,000 rpm during 10 min. […]

[3] = system: cultured mouse hepatocytes; assay: Antiapoptotic signaling pathways (Western blot of phosphorylation) in cultured mouse hepatocytes; type: cell-based; conditions: AR 20 nM, different times
Procedure: as §1, §2

[4] = rat hepatocytes, different times after addition of AR
[5] = 24 h after injection of CCl4 (1 μl/g i.p.)

B1: amphiregulin (protein)
chain: SVRVEQVVKPPQNKTESENTSDKPKRKKKGGKNGKNRRNRKKKNPCNAEFQNFCIHGECKYIEHLEAVTCKCQQEYFGERCGEKSMKTHSMIDSSLSK
notes: polypeptide growth factor belonging to the EGF family, ligand of EGF receptor; human recombinant AR (Sigma) used
phosphorylation of EGF-R on tyrosine residues (cultured rat hepatocytes; isolated rat hepatocytes treated with AR): rapid and transient phosphorylation
JNK phosphorylation (cultured rat hepatocytes; [4]): observed JNK phosphorylation
phosphorylation of Akt (cultured rat hepatocytes; [4]): rapidly induces phosphorylation
phosphorylation of ERK1/2 (cultured rat hepatocytes; [4]): rapidly induces phosphorylation
degree of histological damage (liver, H&E) (male C57/BL6 mice [1]; 24 h after CCl4): decreased
serum level of ALT (male C57/BL6 mice [1]; [5]): clearly attenuated
serum level of AST (male C57/BL6 mice [1]; [5]): clearly attenuated
serum transaminase (AST and ALT) elevation (male C57/BL6 mice [2]; 12 h after Jo2 (4 μg/mouse i.p.), AR 9.5 μg/mouse i.p. 6 and 0.5 h before and 3 h after Jo2): strongly suppressed
liver damage by histopathological analysis (male C57/BL6 mice [2]; 12 h after Jo2, AR 9.5 μg/mouse i.p. 6 and 0.5 h before and 3 h after Jo2): almost completely avoided liver damage
induction of caspase-3 activity in mouse liver extracts (male C57/BL6 mice [2]; 12 h after Jo2 injection, AR 9.5 μg/mouse i.p.): strongly inhibited
levels of Bcl-xL protein in liver (Western blot) (male C57/BL6 mice [2]; AR and Jo2 versus Jo2 alone, 6 h after injection of Jo2, 12 h (figure legend)): greater
rupture of caspase-3 (p17 subunit of active caspase-3, Western blot) in liver (male C57/BL6 mice [2]; liver extracts after Jo2 injection, AR 9.5 μg/mouse i.p.): avoided
phosphorylation of Akt [3]: increased phosphorylation
phosphorylation of ERK1/2 [3]: increased phosphorylation
phosphorylation of STAT3 [3]: stimulate phosphorylation
